Assay results from publication PMC10442857, “Cellular Uptake of a Fluorescent Ligand Reveals Ghrelin O-Acyltransferase Interacts with Extracellular Peptides and Exhibits Unexpected Localization for a Secretory Pathway Enzyme” (ACS Chemical Biology, 2023).
Blank lines part the entries; values can stand above or below the molecule they belong to. Peptide text beside a SMILES is read from it.

Columns and labels:
22Rv1 cells = assay: GOAT ligand labeling and imaging in 22Rv1 prostate cancer cells; assay type: cell-based, human; conditions: 5 μM ligand 15 with 40 μM ligand 12, 30 min RT, p < 0.05
Experimental: Prostate cancer (PCa) cells LNCaP (ATCC, CRL-1740) and 22Rv1 (ATCC, CRL-2505) were maintained in a 75 mL vented tissue culture flask (Celltreat) at 37 °C with 5% CO2 in complete 1× RPMI (Roswell Park Memorial Institute) media supplemented with 10% FBS and 1% (v/v) penicillin-streptomycin (Mediatech). Cell lines were passaged upon reaching 70% confluency (∼2–3 days). For microscopy studies, PCa cells were plated in 2 mL of complete 1× RPMI in a six-well plate (Corning) containing sterile 12 mm poly-L-lysine coated glass coverslips (Neuvitro, GG-12-PDL) in each well. The cells were allowed to adhere and reach 70% confluence on the coverslips prior to labeling.
Upon reaching confluency, coverslips with attached PCa cells were treated with ligands at the indicated concentration for 30 min at RT (unless otherwise stated). Cells were washed 3× with 1× phosphate-buffered saline (PBS) (Cellgro) and then fixed for immunofluorescence staining as described above. For ligand competition experiments, cells were incubated with 5 μM ligand 15 alone, 5 μM ligand 15 with 40 μM ligand 12, or PBS alone for 30 min at RT. […]
The fluorescence range of intensity was adjusted identically for each image series. […] Total cell fluorescence was determined by calculating the integrated density of mean gray value in a cell area compared to background as shown in eqs 4 and 5. […]

GHSR (GHS-R1a) = molecular target: T1, GHSR (GHS-R1a) (Homo sapiens, UniProt Q92847); assay: biochemical; assay type: binding; conditions: lower limit from test at 100 µM; read-out: IC50 against GHSR
T1 construct: expressed in transfected cells; host or cells: HEK 293 cells transfected with GHS-R1a (membrane suspension)
Experimental: Peptide binding affinity for the ghrelin receptor was determined using a competitive radioligand-displacement binding assay,[22] with details provided in the Supporting Information. […]
GHSR receptor binding assays. Peptide binding affinity for the ghrelin receptor was determined using a competitive radioligand-displacement binding assay.1 Assays were performed using GHS-R1a transfected HEK 293 cells as the receptor source and human His[125I]-ghrelin(1−28) (PerkinElmer Inc. NEX388010UC ) as the radioligand. Human ghrelin(1−28) was used as a reference to ensure the validity of the results. A suspension of membrane from HEK 293/GHS-R1a cells (100,000 cells per assay tube) were incubated with ghrelin(1−8) peptide analogues (at […]
ghrelin (15 pM per assay tube) in binding buffer (25 mM HEPES, 5 mM magnesium chloride, 1 mM calcium chloride, 2.5 mM EDTA, and 0.4% BSA, pH 7.4). The resulting suspension was incubated for 20 min under shaking (550 rpm) at 37 °C. Unbound [ 125I]-ghrelin was removed and the amount of [ 125I]-ghrelin bound to the membranes was measured by γ counter. IC 50 values were determined by nonlinear regression analysis to fit a four-parameter dose−response curve using Prism 6 (version 6.0c). All binding assays were performed in triplicate. […]

[1] = molecular target: human ghrelin O-acyltransferase (hGOAT) of the hGOAT inhibition assays (human) (UniProt Q96T53)
[2] = molecular target: T2, human ghrelin O-acyltransferase (hGOAT) of the hGOAT inhibition assays (human, UniProt Q96T53 1-435); assay: cell-based or functional assay
T2 sequence (looked up): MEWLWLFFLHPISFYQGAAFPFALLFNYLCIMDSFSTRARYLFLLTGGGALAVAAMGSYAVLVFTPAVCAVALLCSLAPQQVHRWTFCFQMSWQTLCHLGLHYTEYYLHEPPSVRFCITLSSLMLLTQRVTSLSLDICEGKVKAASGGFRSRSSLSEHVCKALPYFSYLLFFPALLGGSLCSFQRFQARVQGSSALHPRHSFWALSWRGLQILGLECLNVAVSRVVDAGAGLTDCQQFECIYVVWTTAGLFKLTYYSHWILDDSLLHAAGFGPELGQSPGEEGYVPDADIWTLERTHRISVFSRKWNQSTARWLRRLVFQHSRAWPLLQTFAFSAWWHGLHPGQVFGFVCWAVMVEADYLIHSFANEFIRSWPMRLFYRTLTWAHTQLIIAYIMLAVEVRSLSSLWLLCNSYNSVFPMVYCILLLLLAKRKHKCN

IC50 (GHSR (GHS-R1a)): ≥ 100000 nM
Molecule: CC(C)C[C@H](NC(=O)[C@H](Cc1cccc2ccccc12)NC(=O)[C@H](CN)NC(=O)[C@H](CO)NC(=O)CN)C(=O)N[C@@H](CO)C(=O)N1CCC[C@H]1C(=O)N[C@H](C(N)=O)[C@@H](C)O [ligand 12, H-GS-Dap-Nal-1-LSPT-NH2] (HELM PEPTIDE1{G.S.[NC[C@H](N[*:1])C(=O)[*:2]].[O=C([C@H](Cc1cccc2ccccc12)N[*:1])[*:2]].L.S.P.T.[am]}$$$$V2.0)
effect of unlabeled competitor on ligand 15 internalization (total cell fluorescence) (22Rv1 cells): significant reduction of ligand 15 internalization

inhibition of hGOAT activity by ligand 15 (IC50) [1]: 17 nM
Molecule: ligand 15, H-GS-Dap-Nal-1-LSPTK(SulfoCy5)-NH2 (peptide)

inhibition of hGOAT activity (IC50 against hGOAT) [2]: > 100000 nM
B1: ligand 5, H-Inp-S-Dap-FLSPY-NH2 (peptide)
chain: XSXFLSPY
HELM: PEPTIDE1{[O=C(C1CCNCC1)[*:2]].S.[NC[C@H](N[*:1])C(=O)[*:2]].F.L.S.P.Y.[am]}$$$$V2.0
SMILES: CC(C)C[C@H](NC(=O)[C@H](Cc1ccccc1)NC(=O)[C@H](CN)NC(=O)[C@H](CO)NC(=O)C1CCNCC1)C(=O)N[C@@H](CO)C(=O)N1CCC[C@H]1C(=O)N[C@@H](Cc1ccc(O)cc1)C(N)=O

inhibition of hGOAT activity (IC50 against hGOAT) [2]: 6 nM
B2: ligand 12, H-GS-Dap-Nal-1-LSPT-NH2 (peptide)
chain: GSXXLSPT
HELM: PEPTIDE1{G.S.[NC[C@H](N[*:1])C(=O)[*:2]].[O=C([C@H](Cc1cccc2ccccc12)N[*:1])[*:2]].L.S.P.T.[am]}$$$$V2.0
SMILES: CC(C)C[C@H](NC(=O)[C@H](Cc1cccc2ccccc12)NC(=O)[C@H](CN)NC(=O)[C@H](CO)NC(=O)CN)C(=O)N[C@@H](CO)C(=O)N1CCC[C@H]1C(=O)N[C@H](C(N)=O)[C@@H](C)O
